Laboratory results as given in patent US20250368734A1 (ANTENGENE BIOLOGICS, published 2025).
Where two headings read alike, the source gives them in different places.

Legend:
cynomolgus monkey GPRC5D [1] = target: T1, cynomolgus monkey GPRC5D (cynomolgus monkey); experiment: FACS, HEK293T-cynoGPRC5D cells
T1 construct: whole, on cells; HEK293T-cynoGPRC5D cells; also called cynoGPRC5D
From the text: (§1) The subcloning plates were screened by Mirrorball assay and the subclones with good binding ability were expanded to 24-wells for confirmation tests. The specificity and cross-reactivity of these subclones were confirmed with FACS analysis. Briefly, parental HEK293T, HEK293T cells stably over-expressing human GPRC5D protein (i.e., HEK293T-hGPRC5D), HEK293T cells stably over-expressing cynomolgus monkey GPRC5D protein (i.e., HEK293T-cynoGPRC5D), HEK293T cells stably over-expressing mouse GPRC5D protein (i.e., HEK293T-mGPRC5D), and OPM2 cells were incubated with antibodies produced by each subclone, respectively. Fluorescent dye-conjugated secondary antibody was used to detect the binding of the primary antibody with the cells. Median fluorescence intensity (MFI) was measured by FACS analysis,
(§2) As a result, 21 antibodies were discovered with unique sequences showing positive binding with HEK293T-hGPRC5D and OPM2 cells. Among which, some clones could also bind with HEK293T-cynoGPRC5D and/or HEK293T-mGPRC5D. […] ATG596 was a positive human IgG1 control antibody which comprises a VH region having an amino acid sequence as set forth in SEQ ID NO: 199, and a VL region having an amino acid sequence as set forth in SEQ ID NO: 200.

mouse GPRC5D [2] = target: T2, mouse GPRC5D (mouse, UniProt Q9JIL6 1-344); experiment: FACS, HEK293T-mGPRC5D cells
T2 construct: whole, on cells; HEK293T-mGPRC5D cells; also called mGPRC5D; murine GPRC5D
T2 sequence (looked up): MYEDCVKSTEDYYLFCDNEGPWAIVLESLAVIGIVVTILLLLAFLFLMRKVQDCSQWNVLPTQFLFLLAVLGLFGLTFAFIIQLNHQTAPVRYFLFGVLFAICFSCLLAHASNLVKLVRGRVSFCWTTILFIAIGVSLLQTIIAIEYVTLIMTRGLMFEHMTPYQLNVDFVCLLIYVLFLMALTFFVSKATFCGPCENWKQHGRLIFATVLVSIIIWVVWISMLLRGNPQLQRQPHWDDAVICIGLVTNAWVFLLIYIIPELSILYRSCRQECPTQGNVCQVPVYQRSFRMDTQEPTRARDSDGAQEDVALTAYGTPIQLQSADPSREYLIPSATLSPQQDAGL
From the text: as §1, §2

mouse GPRC5D [3] = target: T2, mouse GPRC5D; experiment: FACS, HEK293T-mGPRC5D cells; remark: listed apart in the source
cynomolgus monkey GPRC5D [4] = target: T1, cynomolgus monkey GPRC5D; experiment: FACS, HEK293T-cynoGPRC5D cells; remark: listed apart in the source
From the text: as §1, §2

mouse GPRC5D [5] = target: T2, mouse GPRC5D; experiment: FACS, HEK293T-mGPRC5D cells; remark: listed apart in the source
From the text: as §1, §2

cynomolgus monkey GPRC5D [6] = target: T1, cynomolgus monkey GPRC5D; experiment: FACS, HEK293T-cynoGPRC5D cells; remark: listed apart in the source

% Positive (cynomolgus monkey GPRC5D [1]): 98.6%
MFI (cynomolgus monkey GPRC5D [1]): 6580
% Positive (mouse GPRC5D [2]): 98.2%
MFI (mouse GPRC5D [2]): 14600
EC50 (mouse GPRC5D [3]): 25.5 nM
Top (mouse GPRC5D [3]): 45600
% Positive (cynomolgus monkey GPRC5D [4]): 98.5%
MFI (cynomolgus monkey GPRC5D [4]): 7400
% Positive (mouse GPRC5D [5]): 97.3%
MFI (mouse GPRC5D [5]): 12400
EC50 (cynomolgus monkey GPRC5D [6]): 26.6 nM
Top (cynomolgus monkey GPRC5D [6]): 22500
B1: ATG596 (antibody, V domains shown)
VH: QVQLVQSGAEVKKPGASVKVSCKASGYSFTGYTMNWVRQAPGQGLEWMGLINPYNSDTNYAQKLQGRVTMTTDTSTSTAYMELRSLRSDDTAVYYCARVALRVALDYWGQGTLVTVSS
VL: DIQMTQSPSSLSASVGDRVTITCKASQNVATHVGWYQQKPGKAPKRLIYSASYRYSGVPSRFSGSGSGTEFTLTISNLQPEDFATYYCQQYNRYPYTFGQGTKLEIK
notes: Human IgG1; also called benchmark antibody ATG596; positive human IgG1 control antibody
